# Results published in the supplement of paper PMC11865577.
# Experiments:
# Assay in all cases: pull-down binding Z-score (relative to library population); higher = stronger binding
# [1] = tested on: G-clamp-N3 (biotin conjugate); settings: RNA library: Library-1 (pre-miRNA loops + repeats)
# Procedure, shortened: (§1)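 Heat-folded RNA library (1 μg, Cy5 or Cy3 end label, phosphate/NaCl/KCl buffer) was captured for 60 min at 25 °C on streptavidin beads displaying 100 pmol of biotin-conjugated small molecule, then washed three times. The bound fraction, eluted in hot SDS, was hybridised to a DNA barcode microarray at 55.5 °C for 20 h. Z-scores for binding were taken against the library mean and standard deviation after beads-only subtraction and trimmed averaging of replicate barcoded probes.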
# [2] = tested on: TO-N3-2 (biotin conjugate); settings: RNA library: Library-2
# Procedure, shortened: as §1
# [3] = tested on: TO-3-N3 (biotin conjugate); settings: RNA library: Library-2
# Procedure, shortened: as §1
# TO-N3 (biotin conjugate) = settings: RNA library: Library-2
# Procedure, shortened: as §1
# [4] = tested on: TO-3-N3-2 (biotin conjugate); settings: RNA library: Library-2
# Procedure, shortened: as §1
Sequence,pull-down binding Z-score [1],pull-down binding Z-score [2],pull-down binding Z-score [3],pull-down binding Z-score (TO-N3 (biotin conjugate)),pull-down binding Z-score [4]
CCCUCAUAUGGCAGUUGGCGAGGGCCCAGUGAG [hsa-mir-6769a],2.45,1.53,0.974,1.33,0.582
CUCGGGUGGAUAAGUCUGAUCUGAG [hsa-mir-3663],1.2,0.26,-0.724,-0.554,-0.631
AGAUCACUUUUCUGCACUGGACAGUGAUCU [hsa-mir-3686],-0.182,-0.833,-0.65,-0.904,-0.462
GUCCGGGUGGGUUCCGGCA [hsa-mir-657],-2.05,2.1,1.07,1.33,1.29
GAGAGUGCUUUCUGAAUGCAAUGC [hsa-mir-501],1.7,0.716,-0.342,-0.14,-0.161
ACAGUGGCCACAUCUCCAC [hsa-mir-1184-3_1184-2_1184-1],-1.28,0.582,1.11,1.17,0.472
AUGGUUAAUGUUCCACAGCCA [hsa-mir-5190],-0.723,0.372,-0.134,0.0767,0.157
CAAUCAUGUAUAACUAAAUUUGAUUG [hsa-mir-514a-2_514a-3],0.276,-1.74,-1.04,-1.55,-0.513
GAUUAUUGUAAGCAGGAUCCAUUCAAUAAUC [hsa-mir-5188],-0.228,-0.703,-0.19,-0.366,-0.383
GGCCUGGGAUUCCUGCCUUCUAGGUC [hsa-mir-8078],-0.278,0.307,0.742,0.707,-0.0252
UGGAGGCUGACCUCUUACUUUCGGUCGGUCUUCUU [hsa-mir-4258],-1.13,-0.435,-0.176,-0.486,-0.43
GGCUGCGUGCCACCCGGGCAGCU [hsa-mir-3194],1.93,0.701,-0.341,-0.112,-0.183
GCAGAGCAGGACGCCGCUGCUGC [hsa-mir-8072],-0.0779,1.65,0.701,0.817,0.0817
UUCUCGGUUGGCCGCAGACUCGUACAAGAA [hsa-mir-219b],0.895,0.724,-0.383,0.0802,0.0156
CUCUCCUCCAGCUCAGCUGGUCAGGAGAG [hsa-mir-3160-1],-0.259,-0.0869,1.09,0.959,-0.0211
CAGUACUGGUCUUAGACUG [hsa-mir-554],0.887,0.25,0.477,0.368,0.172
AGUUUCUGGAAUGUCAGAACUUCCAGAAACU [hsa-mir-3199-2],-0.327,-0.865,0.748,0.392,0.034
CAUUUCAGCGUAUAUAUGUAUAUGUGGCUGUG [hsa-mir-19b-2],2.71,0.0211,1.07,1.11,0.559
CUGUGUGAGGACUAGAGGCGG [hsa-mir-4523],1.39,1.05,0.0476,0.511,0.44

Sequence,pull-down binding Z-score [1],pull-down binding Z-score [2],pull-down binding Z-score [3],pull-down binding Z-score (TO-N3 (biotin conjugate)),pull-down binding Z-score [4]
CUGGGAAGGGAGCUGUCCGGCUCCCCAG [hsa-mir-3155b],2.41,-0.136,-0.412,-0.53,-0.263
UAGUGGAAAGAGCACUG [hsa-mir-378b],1.15,-0.274,-0.39,-0.347,-0.158
UCCAGUGUGGCUCGGAGGCUGGA [hsa-mir-139],3.31,1.18,0.91,1.23,0.381
ACAUUUGCAACCUGUGAAGAUGCAAAACUUUAAGUGU [hsa-mir-2053],-0.673,-0.701,-0.699,-0.853,-0.262
GGGCUCGUGAUGGCUGGUGGGCCC [hsa-mir-345],3,0.665,-0.497,-0.356,-0.191
GACAUCCCUCAUCUGUUUCUCACUGGUGUC [hsa-mir-6830],-0.521,-0.507,0.191,-0.0985,0.244
GGGGCCUGUGGUCCC [hsa-mir-1268a],0.885,-0.675,-0.0124,-0.282,-0.144
UGCUUGAUCCAUAUGCAACAAGGCA [hsa-mir-103b-1],-0.604,0.715,0.453,0.57,0.244
CCGCCUUUGUGCUGUCCUUGGAGGGAGG [hsa-mir-1910],1.1,0.495,0.209,0.226,-0.0292
UCACUGUGAACAGUCUCAGUCAGUGA [hsa-mir-183],-0.0454,-0.631,-0.81,-0.919,-0.331
CAAGGGCUCUCCUGAAAGGACAGUAGAGCCCUUG [hsa-mir-4776-1],0.88,-0.109,1.31,1.18,-0.0552
CAAAUCGACUGUCCAAUGGAUUUG [hsa-mir-133a-2],2.07,-0.536,-0.529,-0.674,-0.146
AAGUAGUUGGCGUCUUCAGAGACACUU [hsa-mir-643],-0.0629,0.0279,0.57,0.531,0.0519
CGGAGCAGUCACGUUGACGGAAUCCUCCG [hsa-mir-3183],0.489,0.498,0.234,0.329,-0.255
UUGCUCACGGUAAGAAAAACAUGAGUAA [hsa-mir-8062],0.431,-0.388,0.553,0.238,0.384
GUUUUACUAUGAUGAGGUGUGCCAUCCACCCCAUCAUAGUAAAC [hsa-mir-606],-0.172,-0.698,-0.262,-0.422,-0.139
AGCAGUACCAGACGGUUCUGUGG [hsa-mir-3198-1],-0.487,0.525,-0.321,0.0664,-0.0913
CUUCGGUAUUCAUCAAAAAUACCAAAG [hsa-mir-4735],-0.293,-1.52,-0.683,-1.08,-0.63
CACUCAGGCAGUGCCAUGAGC [hsa-mir-6811],-0.12,0.422,0.249,0.408,-0.366

Sequence,pull-down binding Z-score [1],pull-down binding Z-score [2],pull-down binding Z-score [3],pull-down binding Z-score (TO-N3 (biotin conjugate)),pull-down binding Z-score [4]
CUGCCCCUCGAAUCUGCUCCACGAUUUGGGCAG [hsa-mir-4436a],0.401,-0.521,0.0656,-0.337,-0.181
GGAGACGGGUCUUUCUC [hsa-mir-1208],-1.52,0.758,0.816,1.04,0.466
AUCAGGCAGUUUCCUG [hsa-mir-4289],-1.29,0.0394,-0.305,-0.16,0.101
GAGUGGUCGGGUCGACUGAACC [hsa-mir-4726],-0.197,1.34,0.829,1.23,0.454
CCCAAACUUGGAGCACUUGACCUUUGGC [hsa-mir-4687],-1.02,0.804,0.611,0.815,0.268
CCUGCAGGUGAGAGCGGGAACACCUGCAU [hsa-mir-7112],0.953,1.03,-0.176,0.311,0.104
GCUGAGCCCUUUGAUAAGGGGGAGGUU [hsa-mir-8080],-0.454,0.545,0.21,0.361,-0.219
UGGGUUUGAGUCUGAAUCAACUCA [hsa-mir-181b-2],-0.649,-0.572,-0.728,-0.805,-0.254
UGUUAAGGCAUGUUCAGGAACA [hsa-mir-1265],2.1,0.652,-0.0763,0.28,0.401
UGGCACAGAUCCAAUACCUUCUGUCCCC [hsa-mir-6810],-0.424,0.171,0.0686,-0.118,-0.361
CAUCCCGGACGGCCUGUGAGGGAUG [hsa-mir-4787],1.57,0.952,0.8,1.1,0.0114
UGGAUUUGAAAUGGUCCCACUCCUGACGAUCCU [hsa-mir-6748],-0.524,0.335,-0.358,-0.0778,-0.155
CUUGGCACCUUUGGCCUUAG [hsa-mir-4540],0.795,-0.0687,0.0499,0.112,-0.125
CCCAGCUUUGUGACUGUAAGUGUUGGA [hsa-mir-184],0.351,0.734,0.669,0.723,0.088
CUUGUGGUAUUAGUCCGCACAAG [hsa-mir-100],1.17,-0.096,0.418,0.334,-0.161
UGCCUUGUAGCAUUCAGGUCAAGCA [hsa-mir-103a-2],0.0735,0.0485,-0.594,-0.524,-0.378
CUGGGAAGAGACCAUGAACAGGUUAGUCCAG [hsa-mir-4327],-0.176,-0.495,0.385,0.536,-0.286
GGGCUUUCUGGUUUUAUUUUAAGCCC [hsa-mir-186],0.465,-0.494,0.594,0.261,0.0672
UAAUAUGUAAUAUAAAUGUAUUG [hsa-mir-450a-2],-0.938,-0.926,0.202,-0.167,-0.134
